Patent US20080206139A1, “DELIVERY SYSTEM FOR DIAGNOSTIC AND THERAPEUTIC AGENTS” (The Penn State Research Foundation, priority 2006, published 2008)

Key:
U251 glioma cells = assay: Flow cytometry of intracellular doxorubicin fluorescence, with or without Pgp inhibitor cyclosporine A; assay type: cell-based, Human; details: 20 μM drug, 2 h
Experimental: Flow cytometry: Flow cytometry was used to measure total intracellular doxorubicin fluorescence. In this report we refer to fluorescence intensity as intracellular drug content. 1×10^6 cells were exposed to 20 μM of drug as (a) free DXR (b) DXR encapsulated IL13 conjugated liposomes (c) DXR encapsulated unconjugated liposomes for 2 h. All drug treatments and post treatment incubations were performed in complete growth medium. The cells were washed to remove any free adherent DXR using PBS and centrifuged. Cells were released from tissue culture dishes with 0.05% trypsin/0.02% EDTA followed by PBS washing (centrifugation, 5 min 500 g) and resuspended in PBS for flow cytometry assay. The intracellular accumulation of inherently fluorescent doxorubicin was evaluated using a fluorescence activated cell analyzer. A single 15 mW argon ion laser beam (488 nm) was used to excite the fluorescence of DXR. A total of 10000 cells were analyzed for each histogram. Experiments were repeated 3 times and the fluorescence intensities of DXR were expressed in arbitrary units.
Effect of Pgp inhibitor on the internalization of IL13 conjugated liposomes in the glioma cells: About 50000 U251 glioma cells were plated in a small petridish and were exposed to either IL13 conjugated liposomes carrying 20 μM of doxorubicin or the same concentration of free doxorubicin (20 μM) for 2 hours. […]

IL-13Rα2 = biological target: T1, IL-13Rα2 (Homo sapiens, UniProt Q14627); assay: Cytotoxicity neutralization assay with IL-13 and its mutants against cytotoxin IL13-PE38QQR; assay type: cell-based; details: 100 ng/ml protein; cytotoxin IL13-PE38QQR fixed at 10 ng/ml
T1 sequence (Q14627 27-380): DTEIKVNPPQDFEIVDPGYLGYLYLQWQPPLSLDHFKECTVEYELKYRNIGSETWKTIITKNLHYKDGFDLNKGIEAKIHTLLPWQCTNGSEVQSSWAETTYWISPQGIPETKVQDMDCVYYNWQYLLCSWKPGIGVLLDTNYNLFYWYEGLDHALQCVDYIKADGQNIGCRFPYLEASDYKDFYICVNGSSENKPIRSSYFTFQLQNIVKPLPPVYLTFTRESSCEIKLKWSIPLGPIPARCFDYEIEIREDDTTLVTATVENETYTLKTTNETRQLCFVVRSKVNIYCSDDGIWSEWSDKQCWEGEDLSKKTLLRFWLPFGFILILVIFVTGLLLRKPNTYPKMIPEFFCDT
Experimental: Additionally, position K105 of this region of IL-13 is mutated into a variety of amino acids and the mutants' cytotoxic neutralization potential and binding affinity towards IL-13Rα2 is determined. […] In this titered cytotoxicity neutralization experiment, higher neutralization efficiency against the IL13-PE38QQR cytotoxin, for the mutant IL13.K105R is observed (Madhankumar A. B., Mintz, A., and Debinski, W. (2004) Neoplasia (New York) 6, 15-22). IL13.K105R is able to neutralize the cytotoxicity to 99% at 100 ng/ml concentration when compared with its blocking efficiency at 1000 ng/ml concentration. However, the wild type IL-13 and the mutant IL13.K106R and IL13.R109K have only 86.5%, 86.7% and 80.7% of the cytotoxicity neutralization efficiency with respect to their neutralization efficiency at 1000 ng/ml concentration. […] The high affinity mutant IL13.K105R is used as a ligand to conjugate to liposomes in order to better target the glioma associated IL-13Rα2 receptor.

Row | Molecule | intracellular doxorubicin fluorescence (flow cytometry curve shift) (U251 glioma cells) | cytotoxicity neutralization efficiency with respect to neutralization efficiency at 1000 ng/ml (IL-13Rα2)
1 | COc1cccc2c1C(=O)c1c(O)c3c(c(O)c1C2=O)C[C@@](O)(C(=O)CO)C[C@@H]3O[C@H]1C[C@H](N)[C@H](O)[C@H](C)O1 [free DXR, doxorubicin] | increase in the cell fluorescence | –
2 | IL13.K106R: mutant of IL-13 | – | 86.7%
3 | wild type IL-13: human cytokine interleukin-13, expressed in E. coli as His-tagged protein | – | 86.5%
